Legend:
[1] = target: StBIN2-M (potato (Solanum tuberosum))
[2] = target: His-tagged StBIN2 protein (potato (Solanum tuberosum))

- ATP consumed by StBIN2-M with StSN2 against StBIN2 with StSN2; 5 μg kinase + 5, 10 and 15 μg StSN2 (reduced by 63%, 14% and 12%) [1]: 63 % reduction
- StBIN2 kinase activity as ATP consumption (Kinase-Lumi), 5 μg StBIN2 with varying masses of StSN2 up to 15 μg, against StBIN2 alone [2]: 10 fold
Substance: His-tagged StSN2 protein (from UniProt Q93X17 24-104) (natural protein)
